Experimental findings from patent US20060177432A1 (Novartis, published 2006) are described below.

For one experiment, the target named is human α-thrombin (human, UniProt P00734 328-622). In words: chromogenic substrate hydrolysis at varied substrate and PEBP-H6 concentrations, fitted to the equation for a competitive inhibitor. The protocol: (§1) Six different serine proteases were diluted in enzyme buffer (67 mM Tris, pH 8.0, 133 mM NaCl, 0.13% PEG-6000) and used in protease activity assays with the following final amounts: thrombin, trypsin and chymotrypsin, 0.005 pmol; t-PA and neuropsin, 0.5 pmol; and pancreatic elastase, 4 pmol. Human α-thrombin was prepared and according to Stone et al. (Stone, S. R. and Hofsteenge, J. (1986) Biochemistry 25, 46224628); all other proteases are commercially available (e.g., Sigma, Fluka). […] The pre-incubation was carried out in a 96-well plate for 30 min at 37° C. After addition of 10 μl chromogenic protease substrate (H-D-Ile-Pro-Arg-para-nitroanilide, Chromogenix, 1.25 mg/ml in H₂O for all proteases other than chymotrypsin; or N-Succinyl-Ala-Ala-Pro-Phe-para-nitroanilide, Sigma, 2.3 mg/ml in H₂O for chymotrypsin), any remaining amidolytic activity was determined by measuring the rate of hydrolysis of the chromogenic substrate at 405 nm over 30 min using a THERMOmax microplate reader (Molecular Devices). […]
(§2) To determine the inhibition constants, the rates for the hydrolysis of the chromogenic substrates were measured as described above at fixed enzyme concentrations and substrate concentrations ranging from 3.5 μM to 216 μM and PEBP-H6 concentrations between 0 and 2.9 μM. […]

Another experiment deals with chymotrypsin. Described as above. The protocol:
as §1, §2

B1: PEBP-H6 (mouse PEBP with a stretch of six histidine residues fused to the carboxy-terminus) (other)
chain: AADISQWAGPLCLQEVDEPPQHALRVDYAGVTVDELGKVLTPTQVMNRPSSISWDGLDPGKLYTLVLTDPDAPSRKDPKFREWHHFLVVNMKGNDISSGTVLSDYVGSGPPSGTGLHRYVWLVYEQEQPLSCDEPILSNKSGDNRGKFKVETFRKKYNLGAPVAGTCYQAEWDDYVPKLYEQLSGKHHHHHH
notes: Expressed in Rat-1 cells and purified on Ni-NTA
B1: the Ki came to 0.38 µM in the experiment with human α-thrombin and 1.8 µM with chymotrypsin.

The Ki is the equilibrium dissociation constant of an inhibitor or competing ligand from its target. Low values mean tighter binding, high ones weaker binding.
